The values that follow come from US20250152705A1, “COMBINATION THERAPY COMPRISING AN ANTI-IL-23 ANTIBODY AND A CORTICOSTEROID FOR TREATING PSORIASIS” (priority 2022, published 2025).

Series [1] deals with moderate to severe plaque psoriasis. Description: Prospective, open-label study of effectiveness of tildrakizumab plus topical halcinonide ointment. It is filed as in vivo, human. The note with it: for improvement of mean DLQI from baseline: patients with BSA≤3% at week 16, no halcinonide ointment.
For series [2], the system named is patients with moderate to severe plaque psoriasis. The series is described as follows: Safety outcomes (AEs, SAEs) in the open-label study. It is filed as in vivo, human. The settings on record: through week 24. The protocol: This was a single center, prospective, open-label study to evaluate the effectiveness and safety of tildrakizumab (ILUMYA® [tildrakizumab-asmn] in combination with halcinonide ointment (HALOG® ointment [Halcinonide Ointment, USP, 0.1%) for treating moderate to severe plaque psoriasis. The study protocol was approved by an institutional review board and the study was conducted in accordance with ethical guidelines. Written informed consent was obtained by all patients before initiating treatment.
All enrolled patients received tildrakizumab (100 mg) by subcutaneous injection at weeks 0, 4, and 16. Patients with BSA>3% at week 16 applied halcinonide ointment twice daily for 4 weeks and then continued without halcinonide for an additional 4 weeks of follow up. Patients with BSA≤3% at week 16 were also followed up to week 24. All patients were evaluated for safety and efficacy at weeks 4, 8, 16, 20 and 24.
The primary endpoint of the study was the proportion of patients with BSA≤3% at week 16. […] Improvements in PGA, the composite PGA×BSA measure, and DLQI were also evaluated as secondary endpoints. […]
A cohort of approximately 25 participants was planned for enrollment in the study. […] AEs and SAEs were summarized descriptively by frequency and severity, and their causal relationship to treatment was assessed.

The mark [3] stands for this setting: patients with BSA>3% at week 16, week 16.
The mark [4] stands for this setting: patients with BSA≤3% at week 16, no halcinonide, week 16.

B1: tildrakizumab (antibody, chains of the INN, looked up, V domains shown)
VH: QVQLVQSGAEVKKPGASVKVSCKASGYIFITYWMTWVRQAPGQGLEWMGQIFPASGSADYNEKFEGRVTMTTDTSTSTAYMELRSLRSDDTAVYYCARGGGGFAYWGQGTLVTVSS
VL: DIQMTQSPSSLSASVGDRVTITCRTSENIYSYLAWYQQKPGKAPKLLIYNAKTLAEGVPSRFSGSGSGTDFTLTISSLQPEDFATYYCQHHYGIPFTFGQGTKVEIK
For B1, in series [1] (all patients, week 16), the “decrease of mean DLQI from baseline” value was found to be 68%, the “proportion of patients achieving PASI 75” value is listed as 60.9%, the “proportion of patients achieving PASI 90” value stood at 17.4% and the “proportion of patients achieving PASI 100 (complete resolution)” value came to 4.3%. In series [1] (all patients, week 16), the “proportion of patients with BSA≤1%” value stood at 21.7% and the “reduction in mean BSA involvement from baseline” value is on record as 74%. The “proportion of patients reporting a DLQI score of 0 or 1” value in series [1] (all patients, week 16 (baseline 4.0%)) is reported as 39.2%. The “mean BSA involvement” value in series [1] (all patients, week 16 (baseline 19.1%)) was 5.0%. Also, the “proportion of patients with BSA≤3%” value in series [1] (all patients, week 16, tildrakizumab 100 mg sc at weeks 0, 4, 16) is 52.2%. For the same molecule, the “BSA≤3% response at weeks 20 and 24” value in series [1] (most patients with BSA≤3% at week 16 (no halcinonide use) who completed the study) is “maintained a BSA≤3%”. In addition, in series [1] (setting [3]), the “reduction from baseline in mean BSA” value was determined as 55%, the “reduction from baseline in mean PGA” value is reported as 29%, the “reduction from baseline in mean PGA×BSA” value was 64% and the “reduction in mean DLQI from baseline” value is on record as 50%. In series [1] (week 16), the “improvement of mean DLQI from baseline” value stood at 84%, the “number of patients with BSA>3%” value stood at 11 patients and the “number of patients with BSA≤3%” value came out at 12 patients. The “improvement of mean DLQI from baseline” value in series [1] (weeks 20 and 24) was “remained at similar levels”. Besides, the “BSA, PGA and PGA×BSA responses” value in series [1] (patients with BSA≤3% at week 16, no halcinonide, through week 24) is “maintained”. In series [1] (setting [4]), the “reduction of mean BSA from baseline” value was found to be 89%, the “reduction of mean PGA from baseline” value is listed as 60% and the “reduction of mean PGA×BSA from baseline” value was 95%. Besides, in series [2], the “serious adverse events (SAEs)” value is “no SAEs” and the tolerability result is given as “well tolerated”.
